Data published in patent US8003609B2, “Method for ameliorating pain by modification of NMDA receptors through inhibition of Src” (The Hospital for Sick Children, priority 2004, dated 2011).

Columns and labels:
[1] = target: T1, ND2.1-GST (Homo sapiens, UniProt P03891, A265T); experiment: in vitro binding of biotinylated Src peptides to ND2.1-GST (blot / dot blot); settings: biotinylated peptide, streptavidin-HRP detection
T1 construct: made in house; host or cells: bacteria
Method: Src, Fyn, and ND2 recombinant proteins were prepared. The cDNAs encoding the SH3 and SH2 domains of mouse n-Src and Fyn were PCR subcloned, ligated in frame into pGEX4T-1 (Amersham Pharmacia Biotech, Baie d'Urfé, Québec), and sequenced. These plasmids, as well as plasmids encoding the unique domains of Src and Fyn in pGEX2T'6, were transformed into BL21 bacteria, and GST fusion proteins were purified by glutathione affinity chromatography. To create the ND2.1, ND2.2, and ND2.3 GST fusion proteins, cDNAs encoding amino acids 239-321 (ND2.1-GST; SEQ ID NO:7), amino acids 189-238 (ND2.2-GST; SEQ ID NO:11), and amino acids 1-188 (ND2.3-GST; SEQ ID NO:13) of human ND2 were PCR subcloned and ligated into pGEX4T-1 (the nucleotide sequence encoding ND2 is SEQ ID NO:8 and the amino acid sequence is SEQ ID NO:9; the nucleotide sequences encoding ND2.1; ND2.2 and ND2.3 are SEQ ID NOS:6, 10 and 12, respectively). Using PCR-based single nucleotide mutagenesis, all cDNAs encoding ND2 fusion proteins were corrected for differences between mitochondrial and nuclear codons to prevent premature translation termination and protein truncation. All constructs were then confirmed by sequencing. The plasmids were transformed into bacteria, and GST fusion proteins were purified by glutathione affinity chromatography.
Src40-58 and scrambled Src peptides were biotinylated by incubating with Sulfo-NHS-Biotin (Pierce Chemical Co., Rockford, Ill.) for 30 minutes at room temperature (SEQ ID NO:4, Src protein). […] Bound probe was then detected on film using an ECL kit.
To detect the binding of ND2.1-GST with Src peptides, the ND2.1-GST fusion protein was purified on glutathione SEPHAROSE. […] Bound probe was then detected on film using an ECL kit (Amersham Pharmacia Biotech, Baie d'Urfé, Québec).
Src40-58, Src40-49, Src49-58, scrambled Src40-58, TAT-Src40-49, and scrambled TAT-Src40-49 peptides were biotinylated by incubating with Sulfo-NHS-Biotin (Pierce Chemical Co., Rockford, Ill.) for 30 minutes at room temperature. […] Bound probe was then detected on film using an ECL kit.

[2] = target: T2, ND2 association with NMDAR complexes (Rattus norvegicus, UniProt P11662); experiment: co-immunoprecipitation of ND2 with NMDARs from PSD proteins; type: binding
T2 construct: from tissue; host or cells: rat brain post-synaptic density fraction
Method: Detailed protocols for in vitro binding assays, pull down assays, immunoblotting, and co-immunoprecipitation techniques can be found in Pelkey et al. (Neuron 34:127-138 2002).
Post-synaptic density proteins (Kennedy et al. Proceedings of the National Academy of Science USA 80:7357-7361 1983) were prepared from rat brain as described in detail (Pelkey et al. Neuron 34:127-138 2002). Cellular fractionation of rat brain tissue into nuclear, heavy mitochondrial, light mitochondrial, microsomal, and cytosolic fractions was performed by differential centrifugation of tissue homogenate in 0.25 M sucrose/10 mM HEPES-NaOH, 1 mM EDTA, pH 7.4 with 2 μg each of aprotinin, pepstatin A, and leupeptin (Sigma, St. Louis, Mo.) at 4° C. Nuclei were pelleted by centrifugation at 1 000 g for 10 minutes, the supernatant was removed and spun at 3 000 g for 10 minutes to obtain a heavy mitochondrial pellet. The supernatant was removed and spun at 16 000 g for 15 minutes to obtain a light mitochondrial pellet. The supernatant was removed and spun at 100 000 g for 1 hour to obtain a microsomal pellet and the cytosolic fraction. All pellets were then resuspended in RIPA buffer (50 mM Tris pH 7.6, 150 mM NaCl, 1 mM EDTA, 1% NP-40, 2.5 mg/ml NaDOC, 1 mM Na3VO4 1 mM PMSF, and 2 μg/ml each of protease inhibitors). The light mitochondrial fraction was used in subsequent experiments. […]

T2 sequence (P11662 whole entry, other chains not shown): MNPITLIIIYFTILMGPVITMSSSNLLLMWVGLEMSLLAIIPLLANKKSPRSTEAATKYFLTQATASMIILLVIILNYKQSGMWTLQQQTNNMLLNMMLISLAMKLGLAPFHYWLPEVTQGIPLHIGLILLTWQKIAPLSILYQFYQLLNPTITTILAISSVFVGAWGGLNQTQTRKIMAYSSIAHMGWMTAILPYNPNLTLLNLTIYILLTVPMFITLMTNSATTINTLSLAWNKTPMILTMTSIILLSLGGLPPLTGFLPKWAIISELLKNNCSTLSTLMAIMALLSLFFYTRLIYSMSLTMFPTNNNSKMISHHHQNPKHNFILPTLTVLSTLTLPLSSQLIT
T1 sequence (P03891 239-318 A265T): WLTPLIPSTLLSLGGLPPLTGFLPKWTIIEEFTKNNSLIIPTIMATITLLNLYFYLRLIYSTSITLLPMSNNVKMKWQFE

Src40-58: peptide comprising amino acid residues 40-58 of SEQ ID NO:4 (Src) (PASADGHRGPSAAFAPAAA; listed as Homo sapiens)
binding to ND2.1-GST [1]: bind directly
co-immunoprecipitation of ND2 with NMDARs [2]: not affected
